Measured values reported in IntAct's records for PubMed 32296183.

Columns and labels:
[1] = target: CAMK2B, Q13554-3
[2] = target: coha1_human COL17A1 (UniProt Q9UMD9)
[3] = target: trbp2_human TARBP2 (UniProt Q15633)
[4] = target: TMEM239, Q8WW34-2
[5] = target: SYNGR1, O43759-2
[6] = target: CCDC43 (UniProt Q86WV7)
[7] = target: tbcd1_human TBC1D1 (UniProt Q86TI0)
[8] = target: sft2a_human SFT2D1 (UniProt Q8WV19)
[9] = target: zn639_human ZNF639 (UniProt Q9UID6)
[10] = target: crcm_human MCC (UniProt P23508)
[11] = target: tnip1_human TNIP1 (UniProt Q15025)
[12] = target: car10_human CARD10 (UniProt Q9BWT7)
Chain of car10_human CARD10 (Q9BWT7 whole entry): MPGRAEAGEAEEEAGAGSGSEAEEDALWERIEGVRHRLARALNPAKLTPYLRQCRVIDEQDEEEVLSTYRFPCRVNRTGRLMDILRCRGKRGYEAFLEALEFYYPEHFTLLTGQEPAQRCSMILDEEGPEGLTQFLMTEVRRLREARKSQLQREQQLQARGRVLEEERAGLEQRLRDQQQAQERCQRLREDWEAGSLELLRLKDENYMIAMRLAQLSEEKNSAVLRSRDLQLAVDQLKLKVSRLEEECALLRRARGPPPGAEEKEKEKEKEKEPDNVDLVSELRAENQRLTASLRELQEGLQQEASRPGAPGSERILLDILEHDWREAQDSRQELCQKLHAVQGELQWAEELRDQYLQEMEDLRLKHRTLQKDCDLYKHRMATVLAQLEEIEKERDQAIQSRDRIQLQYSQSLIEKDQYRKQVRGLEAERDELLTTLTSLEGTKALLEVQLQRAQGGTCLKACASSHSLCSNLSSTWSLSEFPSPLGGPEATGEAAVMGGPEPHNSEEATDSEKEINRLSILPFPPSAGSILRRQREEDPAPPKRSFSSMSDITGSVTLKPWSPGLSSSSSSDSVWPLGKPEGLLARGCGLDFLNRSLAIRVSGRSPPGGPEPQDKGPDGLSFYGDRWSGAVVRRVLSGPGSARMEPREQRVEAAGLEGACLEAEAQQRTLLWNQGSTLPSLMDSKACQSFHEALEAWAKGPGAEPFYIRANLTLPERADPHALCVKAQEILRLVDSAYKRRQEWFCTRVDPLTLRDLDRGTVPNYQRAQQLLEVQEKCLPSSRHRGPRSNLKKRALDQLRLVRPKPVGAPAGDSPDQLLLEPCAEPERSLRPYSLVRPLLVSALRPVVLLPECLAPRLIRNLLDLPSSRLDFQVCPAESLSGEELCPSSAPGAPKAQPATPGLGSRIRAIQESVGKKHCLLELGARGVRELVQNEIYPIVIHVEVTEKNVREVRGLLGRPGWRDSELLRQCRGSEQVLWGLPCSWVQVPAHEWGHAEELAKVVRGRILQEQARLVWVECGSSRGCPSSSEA

[13] = target: xrcc4_human XRCC4 (UniProt Q13426)
[14] = target: rprm_human RPRM (UniProt Q9NS64)
[15] = target: IKZF1, Q13422-7
[16] = target: CCDC14, Q49A88-3
[17] = target: snx2_human SNX2 (UniProt O60749)
[18] = target: msd4_human MSANTD4 (UniProt Q8NCY6)
[19] = target: kank2_human KANK2 (UniProt Q63ZY3)
Chain of kank2_human KANK2 (Q63ZY3 whole entry): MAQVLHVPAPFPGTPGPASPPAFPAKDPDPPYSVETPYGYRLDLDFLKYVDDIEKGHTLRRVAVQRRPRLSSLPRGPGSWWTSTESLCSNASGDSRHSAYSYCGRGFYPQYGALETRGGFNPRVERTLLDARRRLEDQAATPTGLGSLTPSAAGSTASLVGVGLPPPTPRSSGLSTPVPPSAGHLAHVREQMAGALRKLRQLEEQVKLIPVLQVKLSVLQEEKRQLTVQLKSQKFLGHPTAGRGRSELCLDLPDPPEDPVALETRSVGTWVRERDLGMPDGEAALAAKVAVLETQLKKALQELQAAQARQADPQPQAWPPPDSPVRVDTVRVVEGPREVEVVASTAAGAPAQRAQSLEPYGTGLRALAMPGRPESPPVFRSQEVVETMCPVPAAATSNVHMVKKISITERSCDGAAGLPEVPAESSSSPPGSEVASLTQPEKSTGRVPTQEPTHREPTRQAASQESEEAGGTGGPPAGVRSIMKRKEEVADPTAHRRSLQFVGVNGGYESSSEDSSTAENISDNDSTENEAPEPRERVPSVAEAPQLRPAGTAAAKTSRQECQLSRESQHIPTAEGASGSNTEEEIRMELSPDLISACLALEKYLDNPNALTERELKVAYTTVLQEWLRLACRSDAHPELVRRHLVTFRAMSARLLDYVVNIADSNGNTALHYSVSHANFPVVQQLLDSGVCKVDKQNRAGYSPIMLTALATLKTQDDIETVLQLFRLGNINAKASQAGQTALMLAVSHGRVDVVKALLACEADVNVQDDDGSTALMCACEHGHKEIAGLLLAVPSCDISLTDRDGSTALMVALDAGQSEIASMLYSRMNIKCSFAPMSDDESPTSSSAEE

[20] = target: cntrb_human CNTROB (UniProt Q8N137)
[21] = target: sp4_human SP4 (UniProt Q02446)
Chain of sp4_human SP4 (Q02446 whole entry): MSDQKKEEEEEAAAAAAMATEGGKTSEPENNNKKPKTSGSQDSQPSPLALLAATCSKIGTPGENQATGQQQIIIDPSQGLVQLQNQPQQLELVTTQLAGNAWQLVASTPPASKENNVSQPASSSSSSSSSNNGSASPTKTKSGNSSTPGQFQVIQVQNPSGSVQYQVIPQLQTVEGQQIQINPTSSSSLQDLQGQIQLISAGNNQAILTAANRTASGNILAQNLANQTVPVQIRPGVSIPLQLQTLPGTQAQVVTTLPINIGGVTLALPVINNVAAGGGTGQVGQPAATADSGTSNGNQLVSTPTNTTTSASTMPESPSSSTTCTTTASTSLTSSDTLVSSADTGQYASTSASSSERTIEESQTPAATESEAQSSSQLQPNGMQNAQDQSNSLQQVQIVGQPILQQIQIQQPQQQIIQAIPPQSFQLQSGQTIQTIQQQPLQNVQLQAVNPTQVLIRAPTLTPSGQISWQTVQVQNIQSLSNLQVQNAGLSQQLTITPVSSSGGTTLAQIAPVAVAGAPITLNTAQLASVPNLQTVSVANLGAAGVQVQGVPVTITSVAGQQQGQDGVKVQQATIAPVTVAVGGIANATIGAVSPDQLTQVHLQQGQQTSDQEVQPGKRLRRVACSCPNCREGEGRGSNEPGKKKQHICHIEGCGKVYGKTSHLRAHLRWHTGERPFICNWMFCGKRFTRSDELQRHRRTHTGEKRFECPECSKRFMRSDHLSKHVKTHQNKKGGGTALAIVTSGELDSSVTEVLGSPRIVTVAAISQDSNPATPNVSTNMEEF

[22] = target: fads6_human FADS6 (UniProt Q8N9I5)
[23] = target: flowr_human CACFD1 (UniProt Q9UGQ2)
Chain of flowr_human CACFD1 (Q9UGQ2 whole entry): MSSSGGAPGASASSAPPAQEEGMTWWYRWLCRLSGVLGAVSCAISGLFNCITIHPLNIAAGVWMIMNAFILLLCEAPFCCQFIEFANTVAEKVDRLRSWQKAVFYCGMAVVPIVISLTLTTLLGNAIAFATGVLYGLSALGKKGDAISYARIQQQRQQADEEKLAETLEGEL

[24] = target: syph_human SYP (UniProt P08247)
Chain of syph_human SYP (P08247 whole entry): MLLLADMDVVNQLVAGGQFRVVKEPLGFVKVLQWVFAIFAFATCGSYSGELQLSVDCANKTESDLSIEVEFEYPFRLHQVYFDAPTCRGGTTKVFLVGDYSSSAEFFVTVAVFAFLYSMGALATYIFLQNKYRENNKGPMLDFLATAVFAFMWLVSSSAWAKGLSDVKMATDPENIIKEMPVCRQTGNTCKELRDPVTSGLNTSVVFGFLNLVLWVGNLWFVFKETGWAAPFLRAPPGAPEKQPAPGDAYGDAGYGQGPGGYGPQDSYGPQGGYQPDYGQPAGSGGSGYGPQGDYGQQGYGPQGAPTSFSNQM

[25] = target: tri37_human TRIM37 (UniProt O94972)
Chain of tri37_human TRIM37 (O94972 whole entry): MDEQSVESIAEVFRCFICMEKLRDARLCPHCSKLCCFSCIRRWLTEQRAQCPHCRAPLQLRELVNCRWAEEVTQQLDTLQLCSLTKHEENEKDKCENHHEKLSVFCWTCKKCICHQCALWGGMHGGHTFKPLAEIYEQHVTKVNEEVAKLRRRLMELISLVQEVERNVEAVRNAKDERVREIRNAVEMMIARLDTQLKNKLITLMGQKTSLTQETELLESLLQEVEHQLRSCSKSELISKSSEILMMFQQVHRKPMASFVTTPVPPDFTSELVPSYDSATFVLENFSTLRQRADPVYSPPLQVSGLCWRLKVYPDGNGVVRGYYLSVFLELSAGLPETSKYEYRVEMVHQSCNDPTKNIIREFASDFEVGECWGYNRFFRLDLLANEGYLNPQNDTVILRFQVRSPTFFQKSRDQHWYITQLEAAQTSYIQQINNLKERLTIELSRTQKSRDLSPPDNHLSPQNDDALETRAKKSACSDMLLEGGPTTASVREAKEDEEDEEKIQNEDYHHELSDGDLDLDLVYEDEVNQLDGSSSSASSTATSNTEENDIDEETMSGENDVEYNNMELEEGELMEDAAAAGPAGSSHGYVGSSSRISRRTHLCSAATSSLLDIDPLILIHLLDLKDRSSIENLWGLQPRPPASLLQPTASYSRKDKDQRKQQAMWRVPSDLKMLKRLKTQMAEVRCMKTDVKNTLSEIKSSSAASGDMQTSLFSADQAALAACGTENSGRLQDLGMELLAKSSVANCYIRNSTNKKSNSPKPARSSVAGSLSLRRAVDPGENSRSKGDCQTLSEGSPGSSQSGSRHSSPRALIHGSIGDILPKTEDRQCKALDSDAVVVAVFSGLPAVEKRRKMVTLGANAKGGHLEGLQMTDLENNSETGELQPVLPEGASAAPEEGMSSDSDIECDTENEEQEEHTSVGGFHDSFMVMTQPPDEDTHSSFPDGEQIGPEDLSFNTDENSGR

[26] = target: zbt14_human ZBTB14 (UniProt O43829)
[27] = target: klh12_human KLHL12 (UniProt Q53G59)
[28] = target: mgst2_human MGST2 (UniProt Q99735)
Chain of mgst2_human MGST2 (Q99735 whole entry): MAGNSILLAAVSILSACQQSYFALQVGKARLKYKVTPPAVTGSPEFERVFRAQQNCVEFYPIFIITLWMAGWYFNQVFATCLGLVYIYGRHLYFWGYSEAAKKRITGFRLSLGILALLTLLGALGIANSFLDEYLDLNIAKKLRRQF

[29] = target: ppip1_human PSTPIP1 (UniProt O43586)
[30] = target: thap1_human THAP1 (UniProt Q9NVV9)
[31] = target: pnma5_human PNMA5 (UniProt Q96PV4)
[32] = target: sng3_human SYNGR3 (UniProt O43761)
[33] = target: pick1_human PICK1 (UniProt Q9NRD5)

Measured: effect of a mutation on the interaction

Chain of sft2a_human SFT2D1 (Q8WV19 whole entry): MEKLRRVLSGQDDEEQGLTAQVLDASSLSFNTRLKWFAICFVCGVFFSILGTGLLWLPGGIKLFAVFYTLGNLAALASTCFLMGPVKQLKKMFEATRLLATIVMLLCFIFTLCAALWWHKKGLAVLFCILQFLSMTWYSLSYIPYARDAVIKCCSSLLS

Bifunctional polynucleotide phosphatase/kinase (Homo sapiens), Q96T60 P20S
with no effect: all assays above
